Assay results: the DeepSol protein solubility set

test: soluble on expression in E. coli; label from the status in PepcDB or PDB records

Sequence	soluble on expression in E. coli
MGSDKIHHHHHHMNLKQLRYFVTICEEGQITAAAKRLHIKQPLLSYEIKQLELELETSLFIRGPRGISLTDAGKVLKPYAEQITELSDVAKTKVKYLDKGISGSLSIGSISSSINKLPNQRLLKLKKYYPNIAINVIEGNTYKLLGYLEKGLIDLAILRTPFSSKGVIGYYFDKEPMVAVSAKNNQKDTVGLPDKYLKIDDLSNKPLIIYRRFKELIENTFRNLGFNPLIVVRCDDARTALDGAKVGFGTAIVPKSAILQVENEGEKDIEFREIKEKALETQLAIMWRRDDSFNPLTENFLKMFIGK	not soluble
SMSNANPFFSQSLAERDASVRGAILKELERQQSQVELIASENIVSRAVLDAQGSVLTNKYAEGYPGKRYYGGCEFADEVEALAIERVKRLFNAGHANVQPHSGAQANGAVMLALAKPGDTVLGMSLDAGGHLTHGAKPALSGKWFNALQYGVSRDTMLIDYDQVEALAQQHKPSLIIAGFSAYPRKLDFARFRAIADSVGAKLMVDMAHIAGVIAAGRHANPVEHAHVVTSTTHKTLRGPRGGFVLTNDEEIAKKINSAVFPGLQGGPLMHVIAGKAVAFGEALTDDFKTYIDRVLANAQALGDVLKAGGVDLVTGGTDNHLLLVDLRPKGLKGAQVEQALERAGITCNKNGIPFDPEKPTITSGIRLGTPAGTTRGFGAAEFREVGRLILEVFEALRTNPEGDHATEQRVRREIFALCERFPIY	soluble
MGSDKIHHHHHHMADETISLDYYAPRFRVEIDGETIPQDGIVSVEVDETLDAPAMVSLAFNETLDPRSQTFAWLDNPKLVPGAEVKVFLGYTGRAVPAPKPLFEGRLHTLTPAFQNSGVPSLMVQGYDHSHGLQKVKSHFSRTNARASDAASEIARLNGLDASGVEATATVHPSIRQGEDEVDLEFLRRLARDLGFEVFVRGKALMFRTPADEETELLTFQWGRNLVSFTPRLSTSAQVSEVRVRGWNPATKERIEGKATVADLKGLAGGVSGAEQAGSGGEPVVRSIEDRPVFSREEADALARAELNRLNDGFITGTGETIGMPELRPGITVAIQGIGTRFSGRYYVKGARHSLGDSGYRTTFEVRRNALGSL	not soluble
ETIASELKAIGKELEDQKKEENIQIAKIAKEKFDFLSTFKVGPYDLIDEDIQMKIKRTLYSSLDYKKENIEKLKEILEILKKNSEHYNIIGRLIYHISWGIQFQIEQNLELIQNGVENLSQEESKSLLMQIKSNLEIKQRLKKTLNETLKVYNQNTQDNEKILAEHFNKYYKDFDTLKPAF	soluble
MGSDKIHHHHHHMSRITDYGFLFQTTFGTSKTNLVNNIQLSQMNSSSVQKQLKAAGIDTNSKKYKAALSEMMKNGNGAMFTNVQAIKNLMSQYDKNGDWIDPNTGLTGLAVTDENRNSYKHIISIPESSREEMFELAKKEFLNENGTLNGDTTKRESVYNNLYRKMDKDDRLSAGWTMEQYEHQYRQAFAEAAKAADPTWKAGKPIPAGALDGITRESVESGKKSVDIKI	not soluble
MIIKRTPQAASPLASWLSYLENLHSKTIDLGLERVSLVAARLGVLKPAPFVFTVAGTNGKGTTCRTLESILMAAGYKVGVYSSPHLVRYTERVRVQGQELPESAHTASFAEIESARGDISLTYFEYGTLSALWLFKQAQLDVVILEVGLGGRLDATNIVDADVAVVTSIALDHTDWLGPDRESIGREKAGIFRSEKPAIVGEPEMPSTIADVAQEKGALLQRRGVEWNYSVTDHDWAFSDAHGTLENLPLPLVPQPNAATALAALRASGLEVSENAIRDGIASAILPGRFQIVSESPRVIFDVAHNPHAAEYLTGRMKALPKNGRVLAVIGMLHDKDIAGTLAWLKSVVDDWYCAPLEGPRGATAEQLLEHLGNGKSFDSVAQAWDAAMADAKAEDTVLVCGSFHTVAHVMEVIDARRSGGK	soluble
MELSSPITIYWDLPATAADPSLLLAIAAGIIDCRPLMLNVTSTAPTSPGWLGEVLERFRGGPAAVTLTIPPQAHDDTVRALVAHGAVRELLLDVDHADLLDSGEWQDEPSAGVSYAVTHGNWRELPTLVHYCLDRGITRLVLPMQRLYGGEPPFFLTMNEQRELANALDAEGGAQRLALTIHDPFLWRAFNPGVPFPQGGCQAANTMIAIAPDGGVYPCPTLPVRLGTAGEMPLQELIASEAKKALRRRLLEHPRACGACGELAECRGGCRGRAYVMHQSLEGEDPSCWLEHHHHHH	not soluble
MAHHHHHHMGTLEAQTQGPGSMDNKKPKIITIASIKGGVGKSTSAIILATLLSKNNKVLLIDMDTQASITSYFYEKIEKLGINFTKFNIYEILKENVDIDSTIINVDNNLDLIPSYLTLHNFSEDKIEHKDFLLKTSLGTLYYKYDYIVIDTNPSLDVTLKNALLCSDYVIIPMTAEKWAVESLDLFNFFVRKLNLFLPIFLIITRFKKNRTHKTLFEILKTKDRFLGTISEREDLNRRIAENNNFDLNKDYIKEYENILEIFLKKI	soluble
MSLTTPLYPIILAGGSGTRLWPLSRQNFPKQFLKLNGELSLIQQTMKRAMGLPGNQTIIVSNDAHYFICQDQLQDFNAQTTYLLEPCARNTAPAIACAAHYLANTVGKDAVMLVLPSDHWIADDEIWLAAMLEGGQFASENNAIVTFGIKPDSPKTGYGYIEAGTTLSSDIKQVLSFREKPDAHTAAQFVSKGNYFWNSGMFICRAGVYLEELEQFETDIYQFSQQALTLAQHHHDFLRLDLDCFSQCKEESIDYAIMEKTDKAVVIPISIQWSDLGCWTAVADANKQDEQGNTLIGNVIAQDSHNCLINSEELLVTTVGIQDQIIVATSDAVLVADKRYSQQVKDLVHSLRKDHPHLTQDHQRVPRPWGYYEVLAEGTSFKVKRLMVKPGAKLSLQTHQHRAEHWVIVGGEAEVVNGNNTFRLSKNQSTYIPKNALHRLSNPHNEPLYVIEVQSGSYLGEDDIKRFDDIYLRKEVEEGHHHHHH	soluble
MGSDKIHHHHHHMFLGEDYLLTNRAAVRLFNEVKDLPIVDPHNHLDAKDIVENKPWNDIWEVEGATDHYVWELMRRCGVSEEYITGSRSNKEKWLALAKVFPRFVGNPTYEWIHLDLWRRFNIKKVISEETAEEIWEETKKKLPEMTPQKLLRDMKVEILCTTDDPVSTLEHHRKAKEAVEGVTILPTWRPDRAMNVDKEGWREYVEKMGERYGEDTSTLDGFLNALWKSHEHFKEHGCVASDHALLEPSVYYVDENRARAVHEKAFSGEKLTQDEINDYKAFMMVQFGKMNQETNWVTQLHIGALRDYRDSLFKTLGPDSGGDISTNFLRIAEGLRYFLNEFDGKLKIVLYVLDPTHLPTISTIARAFPNVYVGAPWWFNDSPFGMEMHLKYLASVDLLYNLAGMVTDSRKLLSFGSRTEMFRRVLSNVVGEMVEKGQIPIKEARELVKHVSYDGPKALFFG	soluble
MADTSPRESKLNKQDQDLHLEIDETGLACKSEVKKRWLGARGTAGLYGNGKYYYEVTITSKGLCRVGWATLGGSLNIGKGLDSFGYGGTGMKSTHKKFDDYGLPFTLNDVIGCYLDLDSRTIWWSKNGEQFPAAFSIDVKYKNSNTCLFPAVLCQNSSLSVNFGSQPFKFPPGNQFTAVSDAPNENVNWWSYEEQNSFEHVVVKLPFAVEEDVHNEFRMHTKLMLTELKRTQCKQDKDGSIRRTLQPISKTICAFLNTDGGRLFLGVNDDKVIKGISMSKNMIYHFFGSLRHMCENFKPCSPLCRIKVSILEVIPVGVIKVKLRKADLLKEEAHDFPKLACHSVGGSFCDCFLEINKAPTKQYLLIIQVSPPNPNSRTTIFQNEEGLVYRRRMASNKCVYLDDLRRMMNEKNQVFVDLPDEARAEIDSFSKFD	not soluble
MATASHNIDDILQLKDDTGVITVTADNYPLLSRGVPGYFNILYITMRGTNSNGMSCQLCHDFEKTYHAVADVIRSQAPQSLNLFFTVDVNEVPQLVKDLKLQNVPHLVVYPPAESNKQSQFEWKTSPFYQYSLVPENAENTLQFGDFLAKILNISITVPQAFNVQEEFHHHHHHHHHH	soluble
MGSDKIHHHHHHMTMPVPHAGPTPLCSNRMQVHSITQETPDVWTISLVNHDFYPYQPGQYALVSIANSEETLRAYTISSSPGLSRFITLTVRRLDDGVGSRWLTQTLKIGDYLWLSDAQGEFTCANAVSDRYLMAAAGCGVTPIMSMCRWLLANKPQIDIHIIFNVRNPQQVIFASEWQDLVQRYPQQLHLTLMAEFDAAPGFLAGRISGDLLVERVPDITNRTVMTCGPAPYMNQIETLSQQLGVASNRIFKEQFRPTDEVVDEDADQITLTISRPLKNLRVPVGISLLAALEANKVHVLAACRAGVCGSCKTRVLSGKYTTTSTMTLTPAEIEQGYVLACSCQLQGDTVLA	not soluble
MNPVHILAKKGEVAERVLVVGDPGRARLLSTLLQNPKLTNENRGFLVYTGKYNGETVSIATHGIGGPSIAIVLEELAMLGANVFIRYGTTGALVPYINLGEYIIVTGASYNQGGLFYQYLRDNACVASTPDFELTNKLVTSFSKRNLKYYVGNVFSSDAFYAEDEEFVKKWSSRGNIAVEMECATLFTLSKVKGWKSATVLVVSDNLAKGGIWITKEELEKSVMDGAKAVLDTLTS	soluble
MGSDKIHHHHHHMDYRKLPHGNEKVSTIGIGSGSLKETTSKEIEDIVTYSMEEGVNLIDTVMYDTTAAEPINNALKGHRDDMLMQIHLGVWYPKGTYSRTRVPRNVKKGFEQELKKYSTNYADIGLISYVDRVKDFEKIMSNGIFDYAKKLKQDGTIRYLGISSHSEEICKLFIETGEIDVIMFSINAAYDFKPSWGKLNLKNERMELYQECEKQGVALTVMKAYGGGQLLNEKTSPFNHAMTVPQCIQYALDRPGVVSCISGVSSKADLDEALKYYSTSEKDRDYSFIASLPHRDIMGTCIYCNHCQPCPSGIDIGIVNKYLDLAKAGDELAKDHYLKLSKNANDCTNCGVCEKNCPFHVDIRGRMLKAKNYFDKTNSVKK	not soluble
MGSDKIHHHHHHMMHDDQVNIDIDIARKMIRDQFPQYRHEDITSVGSSGTVNAIFRIGSKSAARFPLRAMNPTECADMLRSEAAAMVEIGKHCLFPTPQPIGIGEPGPRYPMPWALQTWIEGEVATPHGLSGSTMFALDLARLVASLRQADTRGRRFDGQGRGGHLPDHDDWMAVCLENSEGLLDVARLRDLWARLRELPCAGSVVMSHKDLIPANLLVQGERLVGVLDGGSFGPADPSLDLVVGWHLLDRERRAAFRSGLQVEDLLWKRGAAWAFQQAMGLVWYYRRTNRAMSALGRSTLSRILADPDI	not soluble
MGSDKIHHHHHHMKFFSAPSPATRPPMRNRLPPLNPLRAFEAAARCGTVSAAADELHVTASAVSHQIRILESTLGVALFVRSKARVKLTPEGEALLEPVGAAFDMIANATVRLDSPAAAGDLVVSTPLSLTSRWLARHIGDFLERYPGIHLKVIPSNDDRETYSPDVDVCIRYGEGNWRNRRVELLAHPALFPVVSPALMNGPDAIRKVQDLAGRTLFCEHAGSWMRWLAEANADKLPGIRILEIGNAHIGVEAAVHGQGVALGDSLSVRDDLLDGTLVRPFSAAVPSRHAYYLVTRHELADSPLVTAFTTWLRACLA	not soluble
MSDHQDGMKLEDIERQFLDVAQREGGLEAIQPTTGPLENEENLKSSTGGGGGEDDNDRKKRKRSRSRDRDTRRRSRSRDRGERRGGGGGGDRDRSRSRERRRGGGGRDEPRRRGGDDEARSRREPEPQKPREPKKYRFWDVPPTGFETTTPMEYKNMQAAGQVPRGSVQSAVPVVGPSVTCQSRRLYVGNIPFGCNEEAMLDFFNQQMHLCGLAQAPGNPILLCQINLDKNFAFIEFRSIDETTAGMAFDGINFMGQQLKVRRPRDYQPSQNTFDMNSRMPVSTIVVDSANKIFIGGLPNYLTEDQVKELLCSFGPLKAFSLNVDSQGNSKGYAFAEYLDPTLTDQAIAGLNGMQLGDKQLVVQLACANQQRHNTNLPNSASAIAGIDLSQGAGRATEILCLMNMVTEDELKADDEYEEILEDVRDECSKYGIVRSLEIPRPYEDHPVPGVGKVFVEFASTSDCQRAQAALTGRKFANRTVVTSYYDVDKYHNRQF	soluble
